Measurements published in publication PMC2868174.

Target: ERK2 (UniProt P63086)
Experiment: steady-state kinetics, forward and reverse reaction
Settings: reference: unphosphorylated Ets; sites T38

Ets-1 (Ets; residues 1–138) 1-138 (from UniProt P27577) p-Ets (ERK2-phosphorylated, Mono-Q purified)
other: Km: same; reference 18.0 ± 2.0
